Reference: patent publication US20220251236A1 (Boehringer Ingelheim, published 2022)

B1: DLL3#15/CD3#1 (bispecific antibody, human IgG1, kappa, lambda, L234A L235A)
chain 1: not shown
chain 2: EAVVTQEPSLTVSPGGTVTLTCRSSTGAVTTSNYANWVQEKPGQLPRGLIGGTNKRAPWVPARFSGSLLGGKAALTLSGAQPEDEAEYFCALWYSNLWVFGGGTKLTVLGQPKAAPSVTLFPPSSEELQANKATLVCLISDFYPGAVKVAWKADGSPVNTGVETTTPSKQSNNKYAASSYLSLTPEQWKSHRSYSCQVTHEGSTVEKTVAPAECSGGGGSEGKSSGSGSESKSTEGKSSGSGSESKSTGGGGSEVQLVESGGGLVQPGGSLKLSCAASGFTFNTYAMNWVRQAPGKGLEWVARIRSKYNNYATYYADSVKDRFTISRDDSKNTAYLQMNNLKTEDTAVYYCVRHGNFGNSYVSWFAYWGQGTLVTVSAASTKGPSVFPLAPSSKSTSGGTAALGCLVKDYFPEPVTVSWNSGALTSGVHTFPAVLQSSGLYSLSSVVTVPSSSLGTQTYICNVNHKPSNTKVDKRVEPKSCDKTHTCPPCPAPEAAGGPSVFLFPPKPKDTLMISRTPEVTCVVVDVSHEDPEVKFNWYVDGVEVHNAKTKPREEQYNSTYRVVSVLTVLHQDWLNGKEYKCKVSNKALPAPIEKTISKAKGQPREPQVYTLPPSREEMTKNQVSLSCAVKGFYPSDIAVEWESNGQPENNYKTTPPVLDSDGSFFLVSKLTVDKSRWQQGNVFSCSVMHEALHNRFTQKSLSLSPG
notes: Heterodimer of one DLL3 chain and one CD3 chain (scFab-Fc, knob-in-hole); SPR not given
B2: anti-DLL3 antibody DLL3#1 (antibody, V domains shown)
VH: QVQLVQSGAEVKKPGASVKVSCKASGNTFTNYYMHWVRQAPGPGLEWMGIIDPSVGSKSYAQKFLGRVTIARDTSTSTVFLDLYSLRSEDTAVYFCARAGKRFGESYFDYWGQGTLVTVSS
VL: EIVLTQSPGTLSLSPGERATLSCRASQSVSSNFLVWYQQKPGQAPRPLIYGASTRASGIPDRFSGSGSGADFTLTISRLEPEDFALYYCQQYGDSPYTFGQGTTLEIK
notes: it was detected with anti-mouse reagents
B3: DLL3#16/CD3#1 (bispecific antibody, human IgG1, kappa, lambda, L234A L235A)
chain 1: DIQMTQSPSTLSASVGDRVTITCRASQSVSDWLAWYQQKPGKAPKFLIYRASSLESGVPSRFSGSGSGTEFTLTISSLQPADFATYYCQLYNSYSPTFGQGTKVEIKRTVAAPSVFIFPPSDEQLKSGTASVVCLLNNFYPREAKVQWKVDNALQSGNSQESVTEQDSKDSTYSLSSTLTLSKADYEKHKVYACEVTHQGLSSPVTKSFNRGECGGGGSEGKSSGSGSESKSTEGKSSGSGSESKSTGGGGSEVHLVESGGGLVQPGGSLRLSCAASGFTFSSYWMTWVRQAPGKGLEWVANIKEDGSEKYYVDSVKGRFTISRDNAKNSLYLQMNSLRAEDTALYYCARDWGYFDYWGQGTLVTVSSASTKGPSVFPLAPSSKSTSGGTAALGCLVKDYFPEPVTVSWNSGALTSGVHTFPAVLQSSGLYSLSSVVTVPSSSLGTQTYICNVNHKPSNTKVDKRVEPKSCDKTHTCPPCPAPEAAGGPSVFLFPPKPKDTLMISRTPEVTCVVVDVSHEDPEVKFNWYVDGVEVHNAKTKPREEQYNSTYRVVSVLTVLHQDWLNGKEYKCKVSNKALPAPIEKTISKAKGQPREPQVYTLPPSREEMTKNQVSLWCLVKGFYPSDIAVEWESNGQPENNYKTTPPVLDSDGSFFLYSKLTVDKSRWQQGNVFSCSVMHEALHNHYTQKSLSLSPG
chain 2: B1 chain 2
notes: Heterodimer of one DLL3 chain and one CD3 chain (scFab-Fc, knob-in-hole)

Tests used:
[1] = target: T1, human DLL3 (endogenous, on SCLC cell lines NCI-H82 and SHP77 and in SCLC tissue) (human, UniProt Q9NYJ7 27-618); assay: flow cytometry titration on NCI-H82 cells, PE anti-human secondary, x-fold over background
T1 construct: whole, on cells; also called SCLC cell lines expressing DLL3
T1 sequence (looked up): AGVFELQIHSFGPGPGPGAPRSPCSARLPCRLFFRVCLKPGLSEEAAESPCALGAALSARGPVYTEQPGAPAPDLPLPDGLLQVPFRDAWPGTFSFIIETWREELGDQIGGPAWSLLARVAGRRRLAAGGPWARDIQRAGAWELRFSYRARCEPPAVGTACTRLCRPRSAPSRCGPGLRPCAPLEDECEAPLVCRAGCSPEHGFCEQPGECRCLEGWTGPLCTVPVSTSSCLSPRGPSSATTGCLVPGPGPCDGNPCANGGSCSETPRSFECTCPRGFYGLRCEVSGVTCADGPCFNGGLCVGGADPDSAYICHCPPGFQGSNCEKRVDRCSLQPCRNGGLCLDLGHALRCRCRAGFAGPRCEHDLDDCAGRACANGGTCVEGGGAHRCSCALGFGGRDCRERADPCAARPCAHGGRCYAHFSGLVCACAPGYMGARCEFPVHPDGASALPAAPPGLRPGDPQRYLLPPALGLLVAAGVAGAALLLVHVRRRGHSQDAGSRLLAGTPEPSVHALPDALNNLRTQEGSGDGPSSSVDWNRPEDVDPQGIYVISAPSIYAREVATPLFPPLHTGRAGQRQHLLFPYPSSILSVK
Description: (§1) Cells (T cells or human SCLC cells) were stained with increasing concentrations of two-step purified DLL3/CD3 binding proteins with increasing concentrations in FACS buffer (PBS/0.5% BSA/0.05% sodium azide). Bound molecules were detected with PE-conjugated anti-human secondary antibody (Sigma-Aldrich, #P8047).

[2] = target: T2, EGF4+5; assay: flow cytometry on HEK293 cells expressing the DLL3 subdomain construct, PE anti-human secondary, control: secondary antibody only
T2 construct: also called Hu DLL3 EGF4+5 on HEK293 cells
T2 membrane-anchored DLL3 subdomain construct: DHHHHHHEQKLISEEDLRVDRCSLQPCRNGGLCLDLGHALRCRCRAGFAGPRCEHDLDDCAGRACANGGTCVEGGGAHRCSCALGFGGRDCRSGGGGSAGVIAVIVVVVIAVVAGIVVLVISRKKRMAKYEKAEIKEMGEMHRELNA
Description: (§2) DLL3/CD3 binding proteins were produced by transient transfection of CHO-E cells with the pTT5 vectors carrying the chain-encoding genes, as described in Example 2. […] Bound molecules were detected with PE-conjugated anti-human secondary antibody (Sigma-Aldrich, #P8047). As negative control, cells were incubated with secondary antibody only.
(§3) The samples were measured by flow-cytometry. […] The sequences of the epitope domains are listed in Example 5, Table 3.

[3] = target: T3, EGF3+4; assay: as above
T3 construct: also called Hu DLL3 EGF3+4 on HEK293 cells
T3 membrane-anchored DLL3 subdomain construct: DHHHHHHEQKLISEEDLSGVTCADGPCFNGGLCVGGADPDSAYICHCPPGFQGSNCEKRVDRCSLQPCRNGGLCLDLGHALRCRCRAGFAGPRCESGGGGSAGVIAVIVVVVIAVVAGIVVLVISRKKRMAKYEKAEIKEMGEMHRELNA
Description: as §2, §3

[4] = target: T4, EGF5+6; assay: as above
T4 construct: also called Hu DLL3 EGF5+6 on HEK293 cells
T4 membrane-anchored DLL3 subdomain construct: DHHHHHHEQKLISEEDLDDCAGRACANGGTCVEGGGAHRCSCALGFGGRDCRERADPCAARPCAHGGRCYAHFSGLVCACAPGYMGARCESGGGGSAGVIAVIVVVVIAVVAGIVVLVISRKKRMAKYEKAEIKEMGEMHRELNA
Description: as §2, §3

[5] = target: T5, EGF1+2; assay: as above
T5 construct: also called Hu DLL3 EGF1+2 on HEK293 cells
T5 membrane-anchored DLL3 subdomain construct: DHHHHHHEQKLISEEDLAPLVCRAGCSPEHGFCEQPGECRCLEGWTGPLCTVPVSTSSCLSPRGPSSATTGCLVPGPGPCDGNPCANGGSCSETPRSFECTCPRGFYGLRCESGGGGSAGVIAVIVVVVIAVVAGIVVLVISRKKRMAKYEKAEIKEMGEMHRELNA
Description: as §2, §3

[6] = target: T6, EGF2+3; assay: as above
T6 construct: also called Hu DLL3 EGF2+3 on HEK293 cells
T6 membrane-anchored DLL3 subdomain construct: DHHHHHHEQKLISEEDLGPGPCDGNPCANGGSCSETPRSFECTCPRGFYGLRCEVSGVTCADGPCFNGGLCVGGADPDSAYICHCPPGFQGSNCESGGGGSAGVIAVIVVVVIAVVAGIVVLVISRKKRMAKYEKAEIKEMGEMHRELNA
Description: as §2, §3

[7] = target: T7, EGF6+MEMBRANE PROXIMAL PEPTIDE; assay: as above
T7 construct: also called Hu DLL3 EGF6+membrane proximal peptide on HEK293 cells
T7 membrane-anchored DLL3 subdomain construct: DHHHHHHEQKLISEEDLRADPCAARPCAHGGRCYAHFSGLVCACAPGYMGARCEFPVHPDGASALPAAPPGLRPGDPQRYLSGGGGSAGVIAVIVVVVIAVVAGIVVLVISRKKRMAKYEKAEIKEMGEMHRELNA
Description: as §2, §3

[8] = target: T1, human DLL3 (endogenous, on SCLC cell …); assay: flow cytometry titration on SHP77 cells, PE anti-human secondary, x-fold over background
Description: as §1

[9] = target: T1, human DLL3 (endogenous, on SCLC cell …); assay: flow cytometry on a DLL3-positive SCLC cell line (not named on the sheet), PE-conjugated anti-mouse secondary antibody
Description: Cells (T cells or human SCLC cells) were stained with increasing concentrations of anti-DLL3 antibody with increasing concentrations in FACS buffer (PBS/0.5% BSA/0.05% sodium azide).

[10] = target: T8, trypsin inhibitor from glycine max soybean (Glycine max (soybean)); assay: SPR (Biacore T200), trypsin inhibitor on CM5 chip, sample at 1 µM
T8 construct: also called Tryp
T8 sequence (P01070 25-205): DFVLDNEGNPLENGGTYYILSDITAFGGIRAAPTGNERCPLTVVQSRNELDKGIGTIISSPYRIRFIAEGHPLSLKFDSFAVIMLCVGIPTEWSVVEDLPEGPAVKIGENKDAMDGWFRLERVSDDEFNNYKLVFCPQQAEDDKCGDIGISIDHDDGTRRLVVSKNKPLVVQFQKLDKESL
Description: To prepare the surface for the non-specific binding experiment, chicken egg white lysozyme and trypsin inhibitor from glycine max soybean were coupled manually to a series S CM5 chip with the surface density of 3000-5000 RU using the amine coupling kit according to the manufacture instructions.

[11] = target: T9, Human CD3 E+G HuFc-6xHis (human); assay: SPR (ProteOn XPR36), HuCD3E_HuCD3G-Fc amine-coupled, bispecific as analyte, Example 4B
T9 construct: also called hu CD3εγ-Fc
T9 sequence (chain, as listed by the source limits assumed): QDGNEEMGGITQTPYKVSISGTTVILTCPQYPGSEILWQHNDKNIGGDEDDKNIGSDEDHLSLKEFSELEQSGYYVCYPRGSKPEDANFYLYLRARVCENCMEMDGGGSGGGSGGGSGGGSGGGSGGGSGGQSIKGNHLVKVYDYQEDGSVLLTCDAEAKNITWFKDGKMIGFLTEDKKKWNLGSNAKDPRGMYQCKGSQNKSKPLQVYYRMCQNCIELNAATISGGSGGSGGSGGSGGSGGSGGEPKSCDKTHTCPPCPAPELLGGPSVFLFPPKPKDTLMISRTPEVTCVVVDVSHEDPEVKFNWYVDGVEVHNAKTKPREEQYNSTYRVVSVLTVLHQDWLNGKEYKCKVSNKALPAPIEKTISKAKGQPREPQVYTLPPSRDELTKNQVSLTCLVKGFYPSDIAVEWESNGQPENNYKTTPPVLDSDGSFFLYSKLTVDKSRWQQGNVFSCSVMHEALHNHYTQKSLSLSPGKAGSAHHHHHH
Description: (§4) The binding affinity of purified DLL3/CD3 bispecific constructs for recombinant human DLL3-ECD and Fc-fusion protein of human CD3 εγ subunits was determined by Surface Plasmon Resonance (SPR), using a ProteOn XPR36 instrument (Bio-Rad).
For binding kinetic determination to CD3, HuCD3E_HuCD3G-Fc (dissolved in pH 4.5 acetate) was immobilized directly onto the sensor surface through amine coupling for 360 sec at a flowrate of 30 μl/min vertically. The baseline was stabilized by injecting PBS-T-EDTA for 60 sec at a flowrate of 30 μl/min horizontally. The analytes (all anti-DLL3/CD3 molecules) were injected horizontally over the captured antibody for 600 sec at a flowrate of 30 μl/min and a dissociation for 1800 sec.

[12] = target: T10, Human DLL3-His (human, UniProt Q9NYJ7 27-492); assay: SPR (ProteOn XPR36), bispecific captured on protein A/G, hu DLL3 as analyte, Example 4B
T10 construct: also called huDLL3-His; hu DLL3
T10 sequence: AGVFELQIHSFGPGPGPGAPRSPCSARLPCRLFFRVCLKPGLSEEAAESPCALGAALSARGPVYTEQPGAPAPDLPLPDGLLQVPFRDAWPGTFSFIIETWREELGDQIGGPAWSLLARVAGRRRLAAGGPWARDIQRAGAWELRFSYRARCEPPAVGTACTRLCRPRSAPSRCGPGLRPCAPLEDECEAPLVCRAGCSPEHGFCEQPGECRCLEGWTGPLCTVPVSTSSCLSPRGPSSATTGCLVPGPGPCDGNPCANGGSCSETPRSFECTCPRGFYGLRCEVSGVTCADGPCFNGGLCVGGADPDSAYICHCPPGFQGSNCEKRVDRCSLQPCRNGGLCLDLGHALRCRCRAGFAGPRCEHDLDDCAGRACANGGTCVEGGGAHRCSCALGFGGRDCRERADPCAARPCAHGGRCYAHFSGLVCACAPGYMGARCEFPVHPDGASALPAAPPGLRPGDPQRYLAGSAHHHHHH
Description: as §4
For binding kinetic determination to DLL3, anti-DLL3/CD3 molecules were captured individually on the protein A/G surface vertically for 200 sec at a flowrate of 30 μl/min. The baseline was stabilized by injecting PBS-T-EDTA for 60 sec at a flowrate of 30 μl/min horizontally. The analyte (hu DLL3) was injected horizontally over the captured antibody for 300 sec at a flowrate of 30 μl/min and a dissociation for 1800 sec.

Binder | EC50 (read off the curve) [1] [nM] | binding result [2] | binding result [3] | binding result [4] | binding result [5] | binding result [6] | binding result [7] | EC50 (read off the curve) [8] [nM] | binding result [9] | Non-specific binding (RU) [10] [RU] | Kd [11] [nM] | Kd [12] [nM]
B1 | ~1 | no binding (tested: 1.6 nM) | no binding (tested: 1.6 nM) | no binding (tested: 1.6 nM) | no binding (tested: 1.6 nM) | no binding (tested: 1.6 nM) | no binding (tested: 1.6 nM) | ~2 |  |  |  | 
B2 |  |  |  |  |  |  |  |  | binds |  |  | 
B3 |  | no binding (tested: 1.6 nM) | no binding (tested: 1.6 nM) | no binding (tested: 1.6 nM) | no binding (tested: 1.6 nM) | no binding (tested: 1.6 nM) | no binding (tested: 1.6 nM) |  |  | 0 | 2 | 0.228
